We go through eleven molecules from US11371056B2, “HPPD variants and methods of use” (BASF Agricultural Solutions Seed US LLC, priority 2017, dated 2022).

B1: SEQ ID NO:24 (protein)
chain: MADLYENPMGLMGFEFIEFASPTPGTLEPIFEIMGFTKVATHRSKNVHLYRQGEINLILNNEPNSIASYFAAEHGPSVCGMAFRVKDSQKAYNRALELGAQPIHIDTGPMELNLPAIKGIGGAPLYLIDRFGEGSSIYDIDFVYLEGVERNPVGAGLKVIDHLTHNVYRGRMVYWANFYEKLFNFREARYFDIKGEYTGLTSKAMSAPDGMIRIPLNEESSKGAGQIEEFLMQFNGEGIQHVAFLTDDLVKTWDALKKIGMRFMTAPGDEYYEMLEGRLPDHGEPVDQLQARGILLDGSSVEGDKRLLLQIFSERLMGPVFFEFIQRKGDDGFGPHSFKVLFESIERDQVRRGVLTAD
modifications: mutant HPPD polypeptide
B2: SEQ ID NO:37 (protein)
chain: B1 chain with S344Q, I345M
modifications: mutant HPPD polypeptide
B3: SEQ ID NO:27 (protein)
chain: B1 chain with M264L
modifications: mutant HPPD polypeptide
B4: SEQ ID NO:31 (protein)
chain: B1 chain with R315K, I345M
modifications: mutant HPPD polypeptide
B5: SEQ ID NO:29 (protein)
chain: B1 chain with R315K, S344Q
modifications: mutant HPPD polypeptide
B6: SEQ ID NO:32 (protein)
chain: B1 chain with R315Q, I345M
modifications: mutant HPPD polypeptide
B7: SEQ ID NO:39 (protein)
chain: B1 chain with R213K, R315K, H336D, I345M
modifications: mutant HPPD polypeptide
B8: SEQ ID NO:34 (protein)
chain: B1 chain with R315T, I345M
modifications: mutant HPPD polypeptide
B9: SEQ ID NO:25 (protein)
chain: B1 chain with R315T
modifications: mutant HPPD polypeptide
B10: SEQ ID NO:30 (protein)
chain: B1 chain with R315Q, S344Q
modifications: mutant HPPD polypeptide
B11: SEQ ID NO:33 (protein)
chain: B1 chain with I345M
modifications: mutant HPPD polypeptide

Substitutions are numbered along the chain they refer to.

One data set deals with Pseudomonas fluorescens HPPD polypeptide (wild-type and mutants). Description: Coupled HPPD activity assay: turnover and residual turnover in crude HPPD polypeptide extracts with and without Cmpd. 1. In kind it is biochemical. Conditions: 100 μM Cmpd. 1, normalised to turnover without inhibitor. The method, then:
For the generation of crude HPPD polypeptide extract in micro titer plates (MTP) for the determination of residual activity in inhibition assays, cells were grown in 40 or 150 μl LB medium containing 1% Glucose (Merck, Darmstadt, Germany) and 100 μg/ml ampicillin in a standard 96 well plate (Thermo Fisher Scientific, Waltham, USA) incubated for about 18 h in a humidity incubator at 37° C. 30 μl of this starter culture were added to 600 μl LB medium containing 100 μg/ml ampicillin and 150 mM Hepes (Merck, Darmstadt, Germany) as inoculum for the expression culture in 96 well plates (2 ml deep wells; HJ Bioanalytik, Erkelenz, Germany). The plates were sealed by an aluminium foil, and cells were incubated for 5 h at 37° C. on a plate shaker at 750 rpm. The expression was induced by addition of IPTG in a final concentration of 1 mM followed by further sealed incubation for about 18 h at 30° C. on a plate shaker at 750 rpm.
Cells were harvested by centrifugation at 4° C., 2500 g for 15 min discarding the supernatant. Cell pellets were stored at −80° C. and lysed in 250 μl 1× BugBuster® (Merck, Darmstadt, Germany) in 140 mM Tris (pH 7.8), with 1:25000 diluted BNase® (Qiagen, Hilden, Germany) by incubation of the resuspended cells for 30 min at 4° C. and 1000 rpm. Lysates were clarified by centrifugation for 15 min at 4° C., 2500 g, and 150 μl supernatant were transferred in standard 96 well plate (Thermo Fisher Scientific, Waltham, USA) for subsequent testing in quadruplets.
The activity of HPPD polypeptides was determined in absence or presence of HPPD inhibitors using the coupled HPPD activity assay (FIG. 1).
For the determination of the residual activity, the apparent kinetic constant (kapp) of the determined substrate conversion was measured as kinetic changes in absorbance (OD) at 320 nm in a coupled assay, in that homogentisate (HGA) formed by HPPD from HPP is directly converted into the well absorbing molecule maleylacetoacetate (MAA) by a second enzyme homogentisate dioxygenase (HGD), applied in excess uniformly in all assays (see FIG. 1). The measurements were performed in 384 micro titer plates (Greiner Bio-One GmbH, Frickenhausen, Germany) by plate readers (Tecan infinite M1000 or M1000PRO, Tecan, Männedorf, Switzerland). The kcat/kM ratio of an enzymatic activity is proportional to the apparent kinetic constant kapp and is proportional to kcat/kM*[E] ([E]=enzyme concentration). […] As both kapp measurements in the presence and absence of inhibitor were performed by use of the identical enzyme sample, crude or purified, and thereby at the same enzyme concentration, the enzyme concentration eliminates from the calculation of residual activity and the ratio of both kapp directly indicates the change of kM due to the inhibition.
The assay solution used for determination of residual activities in raw HPPD polypeptide samples was composed by 200 mM sodium phosphate (Merck, Darmstadt, Germany, pH 7.0), 5 mM MgCl2 (Merck, Darmstadt, Germany), 20 mM ascorbate (Sigma-Aldrich, St. Louis, USA), 1 mM DTT (Sigma-Aldrich, St. Louis, USA), 0.1% Pluronic F-68 (Sigma-Aldrich, St. Louis, USA), 40 μM FeSO4 (Sigma-Aldrich, St. […] Louis, USA) and equilibrated for 20 min on ice.
B1: the “Residual turnover [%]” value was 54%.
Regarding B2, the “Residual turnover [%]” value was 42%.
On to B3, for which the “Residual turnover [%]” value stood at 58%.
B4: the “Residual turnover [%]” value was determined as 48%.
The same measure, in the same setting: then B5, with 61%; and B6, with 57%.
In the case of B7, the “Residual turnover [%]” value is listed as 32%.
Regarding B8, the “Residual turnover [%]” value is 53%.
Still for that read-out and setting: the figure for B9 is 45%; for B10 it is 61%.

Staying with this data set, now noted: absence of Cmpd. 1; changes in absorbance (OD) at 320 nm in the coupled assay, 30 min.
Turning to B1, the Turnover was 0.271.
The same measure, in the same setting: the figure for B11 is 0.015; for B2 it is 0.106; for B3 it is 0.262.
For B4, the Turnover came out at 0.268.
On to B5, for which the Turnover is recorded as 0.286.
Still for that read-out and setting: then B6, with 0.269; and B7, with 0.176; and B8, with 0.278.
The same measure, in the same setting: the figure for B9 is 0.25; for B10 it is 0.294.

The data set is the same for the next values; noted with them: presence of 100 μM Cmpd. 1; changes in absorbance (OD) at 320 nm in the coupled assay, 30 min.
B1: the Residual turnover is recorded as 0.147.
On the same count and under the same terms, the figure for B11 is 0.014; for B2 it is 0.045; for B3 it is 0.153.
Consider B4, for which the Residual turnover came to 0.128.
The same measure, in the same setting: the figure for B5 is 0.174.
Take B6: the Residual turnover is 0.154.
The same measure, in the same setting: the figure for B7 is 0.057; for B8 it is 0.148; for B9 it is 0.112.
Still for that read-out and setting: then B10, with 0.18.
